Experimental data reported in the supplement of paper PMC11316812.
± gives the standard deviation of the averaged measurements.

Columns and labels:
[1] = tested on: MCF7; assay: percentage of EdU-negative (G0-arrested) nuclei per well, 72 h; higher = more G0 arrest; conditions: reference: sequence is the full UniProt precursor, the tested protein was the secreted form or ectodomain
[2] = tested on: hTERT-HMEC; assay: as above; conditions: reference: sequence is the full UniProt precursor, the tested protein was the secreted form or ectodomain
[3] = protein concentration 0.0075 µM
[4] = protein concentration 0.0225 µM
[5] = protein concentration 0.00925 µM
[6] = protein concentration 0.0925 µM
[7] = protein concentration 0.0173575 µM
[8] = protein concentration 0.173575 µM
[9] = protein concentration 0.0102857 µM
[10] = protein concentration 0.102857 µM
[11] = protein concentration 0.0260325 µM
[12] = protein concentration 0.260325 µM
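Further: secreted proteins added to cultured cells, EdU pulse at the end, nuclei found by Hoechst imaging, EdU status from nuclear versus surrounding ring intensity ratio, PBS as neutral control.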

| Sequence | percentage of EdU-negative [1, 4] | percentage of EdU-negative ([1]; protein concentration 0.225 µM) | percentage of EdU-negative [2, 4] | percentage of EdU-negative ([2]; protein concentration 0.225 µM) | other results |
| --- | --- | --- | --- | --- | --- |
| MYLVAGDRGLAGCGHLLVSLLGLLLLLARSGTRALVCLPCDESKCEEPRNCPGSIVQGVCGCCYTCASQRNESCGGTFGIYGTCDRGLRCVIRPPLNGDSLTEYEAGVCEDENWTDDQLLGFKPCNENLIAGCNIINGKCECNTIRTCSNPFEFPSQDMCLSALKRIEEEKPDCSKARCEVQFSPRCPEDSVLIEGYAPPGECCPLPSRCVCNPAGCLRKVCQPGNLNILVSKASGKPGECCDLYECKPVFGVDCRTVECPPVQQTACPPDSYETQVRLTADGCCTLPTRCECLSGLCGFPVCEVGSTPRIVSRGDGTPGKCCDVFECVNDTKPACVFNNVEYYDGDMFRMDNCRFCRCQGGVAICFTAQCGEINCERYYVPEGECCPVCEDPVYPFNNPAGCYANGLILAHGDRWREDDCTFCQCVNGERHCVATVCGQTCTNPVKVPGECCPVCEEPTIITVDPPACGELSNCTLTGKDCINGFKRDHNGCRTCQCINTEELCSERKQGCTLNCPFGFLTDAQNCEICECRPRPKKCRPIICDKYCPLGLLKNKHGCDICRCKKCPELSCSKICPLGFQQDSHGCLICKCREASASAGPPILSGTCLTVDGHHHKNEESWHDGCRECYCLNGREMCALITCPVPACGNPTIHPGQCCPSCADDFVVQKPELSTPSICHAPGGEYFVEGETWNIDSCTQCTCHSGRVLCETEVCPPLLCQNPSRTQDSCCPQCTDQPFRPSLSRNNSVPNYCKNDEGDIFLAAESWKPDVCTSCICIDSVISCFSESCPSVSCERPVLRKGQCCPYCIEDTIPKKVVCHFSGKAYADEERWDLDSCTHCYCLQGQTLCSTVSCPPLPCVEPINVEGSCCPMCPEMYVPEPTNIPIEKTNHRGEVDLEVPLWPTPSENDIVHLPRDMGHLQVDYRDNRLHPSEDSSLDSIASVVVPIIICLSIIIAFLFINQKKQWIPLLCWYRTPTKPSSLNNQLVSVDCKKGTRVQVDSSQRMLRIAEPDARFSGFYSMQKQNHLQADNFYQTV [Q9NZV1] |  |  |  |  | percentage of EdU-negative [1, 3]: 24.3 ± 2.8%; percentage of EdU-negative ([1]; protein concentration 0.075 µM): 25.9 ± 0.87%; percentage of EdU-negative [2, 3]: 4.66 ± 0.59%; percentage of EdU-negative ([2]; protein concentration 0.075 µM): 5.81 ± 1.6% |
| MFHQIWAALLYFYGIILNSIYQCPEHSQLTTLGVDGKEFPEVHLGQWYFIAGAAPTKEELATFDPVDNIVFNMAAGSAPMQLHLRATIRMKDGLCVPRKWIYHLTEGSTDLRTEGRPDMKTELFSSSCPGGIMLNETGQGYQRFLLYNRSPHPPEKCVEEFKSLTSCLDSKAFLLTPRNQEACELSNN | 23.57 ± 0.056% | 30.2 ± 0.5% | 4.08 ± 0.27% | 9.42 ± 0.84% |  |
| MAFAWWPCLILALLSSLAASGFPRSPFRLLGKRSLPEGVANGIEVYSTKINSKVTSRFAHNVVTMRAVNRADTAKEVSFDVELPKTAFITNFTLTIDGVTYPGNVKEKEVAKKQYEKAVSQGKTAGLVKASGRKLEKFTVSVNVAAGSKVTFELTYEELLKRHKGKYEMYLKVQPKQLVKHFEIEVDIFEPQGISMLDAEASFITNDLLGSALTKSFSGKKGHVSFKPSLDQQRSCPTCTDSLLNGDFTITYDVNRESPGNVQIVNGYFVHFFAPQGLPVVPKNVAFVIDISGSMAGRKLEQTKEALLRILEDMQEEDYLNFILFSGDVSTWKEHLVQATPENLQEARTFVKSMEDKGMTNINDGLLRGISMLNKAREEHRIPERSTSIVIMLTDGDANVGESRPEKIQENVRNAIGGKFPLYNLGFGNNLNYNFLENMALENHGFARRIYEDSDADLQLQGFYEEVANPLLTGVEMEYPENAILDLTQNTYQHFYDGSEIVVAGRLVDEDMNSFKADVKGHGATNDLTFTEEVDMKEMEKALQERDYIFGNYIERLWAYLTIEQLLEKRKNAHGEEKENLTARALDLSLKYHFVTPLTSMVVTKPEDNEDERAIADKPGEDAEATPVSPAMSYLTSYQPPQNPYYYVDGDPHFIIQIPEKDDALCFNIDEAPGTVLRLIQDAVTGLTVNGQITGDKRGSPDSKTRKTYFGKLGIANAQMDFQVEVTTEKITLWNRAVPSTFSWLDTVTVTQDGLSMMINRKNMVVSFGDGVTFVVVLHQVWKKHPVHRDFLGFYVVDSHRMSAQTHGLLGQFFQPFDFKVSDIRPGSDPTKPDATLVVKNHQLIVTRGSQKDYRKDASIGTKVVCWFVHNNGEGLIDGVHTDYIVPNLF | 26.1 ± 2.2% | 27.2 ± 3.3% | 4.75 ± 1% | 6.22 ± 0.29% |  |
| MARGGRGRRLGLALGLLLALVLAPRVLRAKPTVRKERVVRPDSELGERPPEDNQSFQYDHEAFLGKEDSKTFDQLTPDESKERLGKIVDRIDNDGDGFVTTEELKTWIKRVQKRYIFDNVAKVWKDYDRDKDDKISWEEYKQATYGYYLGNPAEFHDSSDHHTFKKMLPRDERRFKAADLNGDLTATREEFTAFLHPEEFEHMKEIVVLETLEDIDKNGDGFVDQDEYIADMFSHEENGPEPDWVLSEREQFNEFRDLNKDGKLDKDEIRHWILPQDYDHAQAEARHLVYESDKNKDEKLTKEEILENWNMFVGSQATNYGEDLTKNHDEL | 22.7 ± 0.8% | 25.5 ± 0.44% | 4.56 ± 0.49% | 6.14 ± 0.11% |  |
| MLPAPAAPRWPPLLLLLLLLLPLARGAPARPAAGGQASELVVPTRLPGSAGELALHLSAFGKGFVLRLAPDDSFLAPEFKIERLGGSGRATGGERGLRGCFFSGTVNGEPESLAAVSLCRGLSGSFLLDGEEFTIQPQGAGGSLAQPHRLQRWGPAGARPLPRGPEWEVETGEGQRQERGDHQEDSEEESQEEEAEGASEPPPPLGATSRTKRFVSEARFVETLLVADASMAAFYGADLQNHILTLMSVAARIYKHPSIKNSINLMVVKVLIVEDEKWGPEVSDNGGLTLRNFCNWQRRFNQPSDRHPEHYDTAILLTRQNFCGQEGLCDTLGVADIGTICDPNKSCSVIEDEGLQAAHTLAHELGHVLSMPHDDSKPCTRLFGPMGKHHVMAPLFVHLNQTLPWSPCSAMYLTELLDGGHGDCLLDAPAAALPLPTGLPGRMALYQLDQQCRQIFGPDFRHCPNTSAQDVCAQLWCHTDGAEPLCHTKNGSLPWADGTPCGPGHLCSEGSCLPEEEVERPKPVADGGWAPWGPWGECSRTCGGGVQFSHRECKDPEPQNGGRYCLGRRAKYQSCHTEECPPDGKSFREQQCEKYNAYNYTDMDGNLLQWVPKYAGVSPRDRCKLFCRARGRSEFKVFEAKVIDGTLCGPETLAICVRGQCVKAGCDHVVDSPRKLDKCGVCGGKGNSCRKVSGSLTPTNYGYNDIVTIPAGATNIDVKQRSHPGVQNDGNYLALKTADGQYLLNGNLAISAIEQDILVKGTILKYSGSIATLERLQSFRPLPEPLTVQLLTVPGEVFPPKVKYTFFVPNDVDFSMQSSKERATTNIIQPLLHAQWVLGDWSECSSTCGAGWQRRTVECRDPSGQASATCNKALKPEDAKPCESQLCPL [Q9UP79] |  |  |  |  | percentage of EdU-negative [1, 5]: 25.7 ± 2%; percentage of EdU-negative [1, 6]: 26.53 ± 0.069%; percentage of EdU-negative [2, 5]: 5.77 ± 1.1%; percentage of EdU-negative [2, 6]: 6.06 ± 0.51% |
| MRAAPLLLARAASLSLGFLFLLFFWLDRSVLAKELKFVTLVFRHGDRSPIDTFPTDPIKESSWPQGFGQLTQLGMEQHYELGEYIRKRYRKFLNESYKHEQVYIRSTDVDRTLMSAMTNLAALFPPEGVSIWNPILLWQPIPVHTVPLSEDQLLYLPFRNCPRFQELESETLKSEEFQKRLHPYKDFIATLGKLSGLHGQDLFGIWSKVYDPLYCESVHNFTLPSWATEDTMTKLRELSELSLLSLYGIHKQKEKSRLQGGVLVNEILNHMKRATQIPSYKKLIMYSAHDTTVSGLQMALDVYNGLLPPYASCHLTELYFEKGEYFVEMYYRNETQHEPYPLMLPGCSPSCPLERFAELVGPVIPQDWSTECMTTNSHQGTEDSTD |  |  |  |  | percentage of EdU-negative [1, 7]: 26.5 ± 0.46%; percentage of EdU-negative [1, 8]: 27.8 ± 1.6%; percentage of EdU-negative [2, 7]: 5.15 ± 0.62%; percentage of EdU-negative [2, 8]: 5.55 ± 0.26% |
| MADKVRRQRPRRRVCWALVAVLLADLLALSDTLAVMSVDLGSESMKVAIVKPGVPMEIVLNKESRRKTPVIVTLKENERFFGDSAASMAIKNPKATLRYFQHLLGKQADNPHVALYQARFPEHELTFDPQRQTVHFQISSQLQFSPEEVLGMVLNYSRSLAEDFAEQPIKDAVITVPVFFNQAERRAVLQAARMAGLKVLQLINDNTATALSYGVFRRKDINTTAQNIMFYDMGSGSTVCTIVTYQMVKTKEAGMQPQLQIRGVGFDRTLGGLEMELRLRERLAGLFNEQRKGQRAKDVRENPRAMAKLLREANRLKTVLSANADHMAQIEGLMDDVDFKAKVTRVEFEELCADLFERVPGPVQQALQSAEMSLDEIEQVILVGGATRVPRVQEVLLKAVGKEELGKNINADEAAAMGAVYQAAALSKAFKVKPFVVRDAVVYPILVEFTREVEEEPGIHSLKHNKRVLFSRMGPYPQRKVITFNRYSHDFNFHINYGDLGFLGPEDLRVFGSQNLTTVKLKGVGDSFKKYPDYESKGIKAHFNLDESGVLSLDRVESVFETLVEDSAEEESTLTKLGNTISSLFGGGTTPDAKENGTDTVQEEEESPAEGSKDEPGEQVELKEEAEAPVEDGSQPPPPEPKGDATPEGEKATEKENGDKSEAQKPSEKAEAGPEGVAPAPEGEKKQKPARKRRMVEEIGVELVVLDLPDLPEDKLAQSVQKLQDLTLRDLEKQEREKAANSLEAFIFETQDKLYQPEYQEVSTEEQREEISGKLSAASTWLEDEGVGATTVMLKEKLAELRKLCQGLFFRVEERKKWPERLSALDNLLNHSSMFLKGARLIPEMDQIFTEVEMTTLEKVINETWAWKNATLAEQAKLPATEKPVLLSKDIEAKMMALDREVQYLLNKAKFTKPRPRPKDKNGTRAEPPLNASASDQGEKVIPPAGQTEDAEPISEPEKVETGSEPGDTEPLELGGPGAEPEQKEQSTGQKRPLKNDEL [Q9Y4L1] |  |  |  |  | percentage of EdU-negative [1, 9]: 23.6 ± 1.2%; percentage of EdU-negative [1, 10]: 30.4 ± 1.7%; percentage of EdU-negative [2, 9]: 6.45 ± 1.3%; percentage of EdU-negative [2, 10]: 35.3 ± 5.6% |
| MPVPASWPHLPSPFLLMTLLLGRLTGVAGEDELQVIQPEKSVSVAAGESATLRCAMTSLIPVGPIMWFRGAGAGRELIYNQKEGHFPRVTTVSELTKRNNLDFSISISNITPADAGTYYCVKFRKGSPDDVEFKSGAGTELSVRAKPSAPVVSGPAVRATPEHTVSFTCESHGFSPRDITLKWFKNGNELSDFQTNVDPAGDSVSYSIHSTARVVLTRGDVHSQVICEIAHITLQGDPLRGTANLSEAIRVPPTLEVTQQPMRAENQANVTCQVSNFYPRGLQLTWLENGNVSRTETASTLIENKDGTYNWMSWLLVNTCAHRDDVVLTCQVEHDGQQAVSKSYALEISAHQKEHGSDITHEAALAPTAPLLVALLLGPKLLLVVGVSAIYICWKQKA | 24.1 ± 1.1% | 27 ± 1.5% | 5.34 ± 0.15% | 5.42 ± 0.66% |  |
| MQLTRCCFVFLVQGSLYLVICGQDDGPPGSEDPERDDHEGQPRPRVPRKRGHISPKSRPMANSTLLGLLAPPGEAWGILGQPPNRPNHSPPPSAKVKKIFGWGDFYSNIKTVALNLLVTGKIVDHGNGTFSVHFQHNATGQGNISISLVPPSKAVEFHQEQQIFIEAKASKIFNCRMEWEKVERGRRTSLCTHDPAKICSRDHAQSSATWSCSQPFKVVCVYIAFYSTDYRLVQKVCPDYNYHSDTPYYPSG | 28.1 ± 0.43% | 31.8 ± 2.5% | 6.5 ± 0.97% | 6.09 ± 1.7% |  |
| MGGPRALLAALWALEAAGTAALRIGAFNIQSFGDSKVSDPACGSIIAKILAGYDLALVQEVRDPDLSAVSALMEQINSVSEHEYSFVSSQPLGRDQYKEMYLFVYRKDAVSVVDTYLYPDPEDVFSREPFVVKFSAPGTGERAPPLPSRRALTPPPLPAAAQNLVLIPLHAAPHQAVAEIDALYDVYLDVIDKWGTDDMLFLGDFNADCSYVRAQDWAAIRLRSSEVFKWLIPDSADTTVGNSDCAYDRIVACGARLRRSLKPQSATVHDFQEEFGLDQTQALAISDHFPVEVTLKFHR |  |  |  |  | percentage of EdU-negative [1, 11]: 25.9 ± 0.85%; percentage of EdU-negative [1, 12]: 23.9 ± 1.7%; percentage of EdU-negative [2, 11]: 4.97 ± 0.32%; percentage of EdU-negative [2, 12]: 5.04 ± 0.098% |
